Data reported in article PMC11079029, “Intramolecular autoinhibition regulates the selectivity of PRPF40A tandem WW domains for proline-rich motifs” (Nature Communications, 2024).
pKd: −log10 of the molar value.

Legend:
[1] = biological target: PRPF40A N-ext-WW12 mutant (residues 56-236, PPVP/PALPP motifs changed to alanines) (human) (UniProt O75400); assay: ITC; PRPF40A construct (WW12, N-ext-WW12 or its mutant) in the cell, GB1-SF1 or GB1-SF3A1 construct in the syringe (as shown in Supplementary Figures 16 and 21); 25 °C, 20 mM sodium phosphate pH 6.5, 100 mM NaCl; one-site binding model; at least duplicates; affinities apparent
[2] = biological target: PRPF40A N-ext-WW12 (N-terminally extended WW tandem, residues 56-236) (human) (UniProt O75400); assay: as above
[3] = biological target: GB1-SF1(596-611) 16-mer peptide; assay: ITC; MicroCal PEAQ-ITC, 25 °C, 20 mM sodium phosphate pH 6.5, 100 mM NaCl; PRPF40A constructs and GB1-tagged SF1 16-mer peptides; who was in the syringe is not stated for these panels (Fig. 2B, Fig. 5C); one-site model
[4] = biological target: GB1-SF1 16-mer peptide 478-493; assay: ITC; GB1-peptide or GB1-SF1 construct in the cell, PRPF40A WW12 in the syringe (as shown in Supplementary Figures 7 and 16A); 25 °C, 20 mM sodium phosphate pH 6.5, 100 mM NaCl; one-site binding model; at least duplicates; affinities apparent
[5] = biological target: GB1-SF1 16-mer peptide 425-440; assay: as above
[6] = biological target: GB1-SF1 16-mer peptide 470-485; assay: as above
[7] = biological target: GB1-SF1 16-mer peptide 596-611; assay: as above
[8] = biological target: GB1-SF1 16-mer peptide 575-590 (SF1 PRPF40A WW binding site, GB1-tagged); assay: as above
[9] = biological target: GB1-SF1 16-mer peptide 623-638; assay: as above

| pKd [1] | stoichiometry N [1] [sites] | pKd [2] | stoichiometry N [2] [sites] | pKd [3] | pKd [4] | stoichiometry N [4] [sites] | pKd [5] | stoichiometry N [5] [sites] | pKd [6] | stoichiometry N [6] [sites] | pKd [7] | stoichiometry N [7] [sites] | pKd [8] | stoichiometry N [8] [sites] | pKd [9] | stoichiometry N [9] [sites] | Substance |
| --- | --- | --- | --- | --- | --- | --- | --- | --- | --- | --- | --- | --- | --- | --- | --- | --- | --- |
| 5.66 | 0.84 | 5.06 | 0.88 |  |  |  |  |  |  |  |  |  |  |  |  |  | GB1-SF1 16-mer peptide 575-590 (SF1 PRPF40A WW binding site, GB1-tagged) |
|  |  |  |  | 4.18 | 5.02 | 0.8 | 4.69 | 0.87 | 4.86 | 0.9 | 4.18 | 1.1 | 5.85 | 1 | 4.63 | 0.95 | PRPF40A WW12 (tandem WW domains, residues 141-236) (from UniProt O75400 141-236) (domain or fragment) |
